Assay results from patent US20230330254A1 (Regeneron, published 2023).
Numbering of substitutions follows the chain as printed.

B1: COMP Anti-GLP1R mAb1 conjugated to LP4 (antibody, human IgG4 S228P, kappa, V domains shown)
VH: QVTLKESGPGILQPSQTLSLTCSFSGFSLSTSGTGVGWIRQPSGKGLEWLSHIWWDDVKRYNPALKSRLTISRDTSYSQVFLRIASVDTADTATYYCARILDGTGPMDYWGQGTSVTVSS
VL: QIVLTQSPAIMSASPGEKVTMTCSASSRVTYMHWYQQRSGTSPKRWIYDTSKLASGVPARFSGSGSGTSYSLTISSMEAEDAATYYCQQWGNNPQYTFGGGTRLEIKR
modifications: azido-PEG3-amine on the Gln of the N-terminal Q-tag LLQGSG, clicked to LP4 (DIBAC-suc-PEG24-P9)
B2: REGN9278-M3190 (antibody, human IgG4 S228P, kappa, V domains shown)
VH: QVQLQQWGAGLLKPSETLSLTCAVYGGSFSGYYWSWIRQPPGKGLEWIGEINHAGSTNYNPSLKSRITISVDTSKNQFSLKLSSVTAADTAVYYCARGWYYGSGSYHRNWFDPWGQGTLVTVSS
VL: EIVLTQSPGTLSLSPGERATLSCRASQSVYYSYLAWYQQKPGQAPRLLIYGASNRATGIPDRFSGSGSGTDFTLTISRLEPEDFAVYYCQQYGNSPWTFGQGTKVEIKR
modifications: linker-payload M3190 (LP11) on Gln 3 of the N-terminal Q-tag LLQGSG
notes: antibody-tethered drug conjugate; also called REGN9278 ATDC
B3: H4H30484P2 (antibody, V domains shown)
VH: EVQLVESGGGLVQPGGSLKLSCAASGFTFSGSAMHWVRQASGKGLEWVGRITSKANSYATAYDASVKGRFTISRDDSKNTAYLQMNSLKTEDTAVYYCTRQRFLEFLFLDYWGQGTLVTVSS
VL: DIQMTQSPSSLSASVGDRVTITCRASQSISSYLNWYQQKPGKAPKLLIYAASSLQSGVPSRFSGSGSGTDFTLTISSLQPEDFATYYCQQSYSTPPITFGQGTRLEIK
notes: parental antibody without Q-tag; also called parent of REGN5619
B4: H4H30452P (antibody, V domains shown)
VH: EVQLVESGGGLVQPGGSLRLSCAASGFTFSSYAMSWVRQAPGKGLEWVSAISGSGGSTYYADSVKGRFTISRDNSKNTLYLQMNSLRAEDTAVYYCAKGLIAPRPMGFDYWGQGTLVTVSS
VL: DIQMTQSPSSVSASVGDRVTITCRASQGINSWLAWYQQKPGKAPKLLIYAASSLQSGVPSRFSGSGSGTDFTLTISSLQPEDFATYYCHQADSFPYTFGQGTKLEIK
notes: parental antibody without Q-tag; also called parent of REGN7990
B5: REGN8051 (antibody, V domains shown)
VH: QVQLVESGGGVGQPGRSLRLSCAASGFTFSRNAMHWVRQAPGKGLEWVAVISYDGSNKHYADSVKGRFTISRDNSKNTLYLEMNSLRVEDTAVYYCAKGGIPFDYWGQGTLVTVSS
VL: DIVMTQSPLSSPVTLGQPASISCRSSQSLVHFDGNTYLSWLHQRPGQPPRLLIYKISNRFSGVPDRFSGSGAGTDFTLKISRVEPEDVGVYYCMHATQFPYTFGQGTKLEIK
notes: parental antibody without Q-tag; also called parent of REGN8070
B6: REGN8052 (antibody, V domains shown)
VH: QVQLVESGGGVVQPARSLRLSCAASGFAFSRSAMHWVRQAPGKGLEWVAVISYDGSNKYYTDSVKGRFTISRDNSKNTLYLQMNTLRAEDTALYYCAKMYTTMDSFDYWGQGTLVTVSS
VL: DIQLTQSPSFLSASVGDRVTITCWASQGISSYLAWYQQKPGKAPKLLIYAASTLQSGVPSRFSGSGSGTEFTLTISSLQPEDFALYYCQQLNSYPRTFGQGTKVEIK
notes: parental antibody without Q-tag; also called parent of REGN8072
B7: H1M30345N (antibody, V domains shown)
VH: EVQLVESGGGLVKPGGSLRLSCAASGFIFSRYSMNWVRQAPGKGLEWVSSMSSNSKNTYYADSVKGRFTISRDNAKNSLFLQMNTLRAEDTAVYYCARDGYTLRAFDIWGQGTMVTVSS
VL: EIVLTQSPGTLSLSPGERDTLSCRASQSIAGRYVAWYQQKPGQAPRLLIYGASSRATGIPDRFSGSGSGTDFTLTISRLEPEDFAVYYCQQYGSSPWTFGQGTKVEIK
B8: H2aM30341N (antibody, V domains shown)
VH: B2 VH
VL: B7 VL with D19A, I29V, A30Y, G31Y, R32S, V34L, S54N, S94N
notes: parent of H4H30341N (REGN9278 without Q-tag); also called parent of REGN9278
B9: REGN8070 (antibody, human IgG4 S228P, kappa, V domains shown)
VH: B5 VH
VL: DIVMTQSPLSSPVTLGQPASISCRSSQSLVHFDGNTYLSWLHQRPGQPPRLLIYKISNRFSGVPDRFSGSGAGTDFTLKISRVEPEDVGVYYCMHATQFPYTFGQGTKLEIKR
notes: IgG4; Q-tag on light chain N-terminus; also called mAb 16; REGN8070 unconjugated Ab
B10: REGN9267 (antibody, human IgG4 S228P, kappa)
heavy: not shown
light: EIVLTQSPGTLSLSPGERDTLSCRASQSIAGRYVAWYQQKPGQAPRLLIYGASSRATGIPDRFSGSGSGTDFTLTISRLEPEDFAVYYCQQYGSSPWTFGQGTKVEIKRTVAAPSVFIFPPSDEQLKSGTASVVCLLNNFYPREAKVQWKVDNALQSGNSQESVTEQDSKDSTYSLSSTLTLSKADYEKHKVYACEVTHQGLSSPVTKSFNRGEC
notes: IgG4; Q-tag on heavy chain N-terminus; also called mAb 5; REGN9267 unconjugated Ab
B11: REGN9278 (antibody, human IgG4 S228P, kappa, V domains shown)
VH: B2 VH
VL: B2 VL
notes: IgG4; Q-tag on light chain N-terminus; also called mAb 19; REGN9278 unconjugated Ab
B12: REGN8072 (antibody, human IgG4 S228P, kappa, V domains shown)
VH: B6 VH
VL: DIQLTQSPSFLSASVGDRVTITCWASQGISSYLAWYQQKPGKAPKLLIYAASTLQSGVPSRFSGSGSGTEFTLTISSLQPEDFALYYCQQLNSYPRTFGQGTKVEIKR
notes: IgG4; Q-tag on light chain N-terminus; also called mAb 4; REGN8072 unconjugated Ab
B13: REGN7988-M3190 (antibody, human IgG4 S228P, kappa, V domains shown)
VH: QVQLVESGGGVVQPGRSLRLSCAASGFTFSGYGIHWVRQAPGKGLVWVAVIWYDGSFKYYADSVKGRFTISRDNSKNTLYLQMNSLRAEDTAVYYCARGDSSSSGRYYYYGMDVWGQGTTVTVSS
VL: DIQMTQSPSSLSASVGDRVTITCRASQGIRNDLGWYQQKPGTAPKRLIFAASSLQSGVPSRFSGSGSGTEFTLTISSLQPEDFATYYCLQHNNYPPTFGGGTKVEIKR
modifications: linker-payload M3190 (LP11) on Gln 3 of the N-terminal Q-tag LLQGSG

What follows are binders tested against T1, full-length human GLP1R on HEK293/CRE-Luc/hGLP1R cells (human, UniProt P43220 24-463) (assay: cell-based or functional assay).

Row | Binder | CRE-luc EC50 [nM] | CRE-luc Relative Potency (% P8 EC50) [%] | CRE-luc Relative Signal:Noise (% P8) [%] | CRE-luc S/N [fold]
1 | B1 | 0.0629 | 55.3 | 87.4 | 284

The binders below were run against T2, N-terminal ectodomain of human GLP1R expressed with a myc-myc hexahistidine tag (human, UniProt P43220 24-145, limits assumed) (assay: SPR, captured via anti-hFc, 25 C).
T2 construct: extracellular domain; also called hGLP1R-MMH; hGLP1R.mmh
T2 sequence (P43220 24-145 limits assumed): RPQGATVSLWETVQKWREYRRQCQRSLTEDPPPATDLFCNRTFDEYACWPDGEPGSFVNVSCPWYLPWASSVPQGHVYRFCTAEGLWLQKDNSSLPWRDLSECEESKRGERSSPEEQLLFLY

Row | Binder | 90 nM hGLP1R.mmh Bound (RU) | Kd [nM] | koff [s⁻¹] | kon [M⁻¹ s⁻¹] | t1/2 [min]
2 | B2 | 55.7 | 1.1 | 0.000127 | 116000 | 91

Molecular target: T2, N-terminal ectodomain of human GLP1R …
Experiment: SPR, captured via anti-hFc, 25 C
Remark: another data set of the same source

Row | Binder | 90 nM hGLP1R.mmh Bound (RU) | Kd [nM] | koff [s⁻¹] | kon [M⁻¹ s⁻¹] | t1/2 [min]
3 | B3 | 26 | 181 | 0.039 | 215000 | 0.3
4 | B4 | 88.9 | 5.4 | 0.00118 | 218000 | 9.8
5 | B5 | 73.7 | 3.41 | 0.000211 | 61900 | 54.7
6 | B6 | 98.7 | 5.49 |  |  | 9.6
7 | B7 | 61.7 | 0.16 |  |  | 102
8 | B8 | 48.4 | 0.346 | 7.74e-05 | 224000 | 149

Each binder was assayed against T3, full-length cynomolgus GLP1R on HEK293/CRE-Luc/mfGLP1R cells (cynomolgus, UniProt F8V479 24-463) (assay: flow cytometry, mfGLP1R cells).
T3 construct: whole, on cells

Row | Binder | EC50 [nM] | Flow S/N [fold]
9 | B3 | 0.963 | 284
10 | B5 | 4.12 | 494
11 | B9 | 2.05 | 246
12 | B6 | 2.13 | 
13 | B7 | 3.54 | 
14 | B10 | 0.668 | 
15 | B8 | 2.1 | 646
16 | B11 | 2.49 | 548

What follows are binders tested against T1, full-length human GLP1R on … (assay: flow cytometry, hGLP1R cells).

Row | Binder | EC50 [nM] | Flow S/N [fold]
17 | B3 | 1.98 | 208
18 | B4 | 1.68 | 115
19 | B5 | 7.39 | 560
20 | B9 | 3.44 | 322
21 | B6 | 0.705 | 
22 | B12 | 1.42 | 
23 | B7 | 1.64 | 
24 | B10 | 0.944 | 
25 | B8 | 2.75 | 595
26 | B11 | 4.21 | 436

Molecular target: T1, full-length human GLP1R on …
Experiment: cell-based or functional assay
Remark: another data set of the same source

Row | Binder | CRE-luc EC50 [nM] | CRE-luc Relative Potency (% M2361 EC50) [%] | CRE-luc Relative Signal:Noise (% M2361) [%] | CRE-luc S/N [fold]
27 | B13 | 0.107 | 15.1 | 140 | 90.1
28 | B2 | 0.376 | 4.3 | 115 | 73.8
